A short description of data set [1]: Catalytic efficiency (kcat/Km) of L-pipecolic acid hydroxylases with L-pipecolic acid (Example 3). The class given is biochemical. The conditions noted are these: in words.
Data set [2] can be described thus: Catalytic efficiency (kcat/Km) of L-pipecolic acid hydroxylases with L-proline (Example 3). The class given is biochemical. The conditions noted are these: for hydroxy-L-proline detected from the reaction solution: L-proline as substrate, Example 3, in words. As to the method:
Each of the obtained recombinant E. coli strains in a volume of 0.6 mL was recovered by centrifugation and was suspended in 0.5 mL of 50 mmol/L MES (2-morpholinoethanesulfonic acid) buffer at pH 6. The container containing the suspension was placed in ice-water bath to perform sonication and then spun at 12,000 rpm. The obtained supernatant was used as an enzyme solution in Example 3.
Subsequently, 0.05 mL of 1 mol/L hydrochloric acid was added to stop the reaction.
The reaction using L-proline as a substrate was carried out under the same conditions as in the above reaction using L-pipecolic acid.
Then, each reaction solution was treated using 1-fluoro-2,4-dinitrophenyl-5-L-alaninamide (FDAA) (manufactured by Tokyo Chemical Industry Co., Ltd.) according to a method as described below, to obtain a FDAA-derivative of a hydroxy-L-pipecolic acid or hydroxy-L-proline included in each reaction solution.
To the reaction solution after stopping the reaction, 0.05 mL of 1 mol/L sodium hydroxide was added for neutralization. After centrifuging the solution at 12,000 rpm, 15 μL of 0.5 mol/L borate buffer (pH 9) was added to 15 μL of the obtained supernatant, followed by further addition of 30 μL of 20 mmol/L FDAA solution in acetone and incubation at 40° C. for one hour. Subsequently, 10 μL of 1 mol/L hydrochloric acid was added to stop the derivatization reaction. The resulting solution was diluted by adding 80 μL of methanol, and then centrifuged at 12,000 rpm. The obtained supernatant was used as a FDAA derivative solution.
The amount of produced hydroxy-L-pipecolic acid or hydroxy-L-proline was analyzed with UPLC-MS (manufactured by Waters Co.).
An aliquot containing 5 μg of total protein was taken from each enzyme solution obtained in Example 2, loaded on each lane, and then electrophoresed on polyacrylamide gel. The obtained electrophoretogram was analyzed using the image analysis software Image Lab3.0 (manufactured by Bio-Rad Laboratories, Inc.) to determine the content of each hydroxylase. A carbonic anhydrase (manufactured by Sigma-Aldrich Co. LLC) was used as a quantification reference. The content of a hydroxylase of interest was calculated from the signal intensity of the enzyme of interest, based on the signal intensities of bands corresponding to 200 ng, 400 ng and 600 ng of the quantification reference provided for the electrophoresis.
The catalytic efficiency of each enzyme was calculated based on the Michaelis-Menten kinetic equation.
It is known that, in FIG. 1, the reciprocal of each intercept with the x-axis, multiplied with −1, represents a km value (mmol/L) and the reciprocal of each intercept with the y-axis represents a Vmax value (U/mg), the maximum rate of reaction.
The catalytic ability per molecule of the enzyme (kcat) can be calculated from the Vmax and the molecular weight of the enzyme. Table 5 indicates the result of the calculation of catalytic efficiency (kcat/km), which is an index representing the catalytic ability of an enzyme, based on the obtained kcat and km values.

Data set [3] can be described thus: Production of hydroxy-L-pipecolic acids by culture of recombinant E. coli expressing the hydroxylase (Example 5). To be noted: for Accumulation of (4S)-hydroxy-L-proline: 120 hours; for Accumulation amount of (4S)-hydroxy-L-proline / Accumulation amount of (5S)-Hydroxy-L-pipecolic acid / Accumulation amount of L-pipecolic acid: after 120 hours, 20 mmol/L L-pipecolic acid in medium, 30° C. The class given is cell-based, E. coli BL21 (DE3).

Data set [4] in a line: Reactivity comparison of L-pipecolic acid 5-hydroxylases, substrate L-proline (Example 4). To be noted: for Relative activity, Substrate: L-proline (hydroxy-L-proline-producing activity, 100 = hydroxy-L-pipecolic acid-producing activity): 10 mmol/L substrate, 30° C., 30 minutes; for hydroxy-L-proline detected from the reaction solution: Example 4, 10 mmol/L L-proline, in words.
Procedure: (§1) The detection of the products was based on the absorbance at a wavelength of 340 nm.
(§2) The activity values were evaluated by the amount of a product per gram of total protein (U/g-protein).

Data set [5] in a line: Reactivity comparison of L-pipecolic acid 5-hydroxylases, substrate L-pipecolic acid (Example 4). The conditions noted are these: 10 mmol/L substrate, 30° C., 30 minutes; hydroxy-L-pipecolic acid-producing activity set to 100.
Procedure: as §1, §2
Data set [6] can be described thus: 5-hydroxy-L-pipecolic acid-producing activity of McPH mutants (Example 6). The class given is biochemical. To be noted: for Relative activity (5-hydroxy-L-pipecolic acid-producing activity, wild type = 100): Table 10, double and triple mutants. The text has this:
Each of the obtained plasmids was used to transform E. coli (Eschelichia coli) BL21 (DE3) (manufactured by Invitrogen) according to a conventional method and thus to obtain recombinant E. coli strains expressing the respective mutants.
Furthermore, the combination effect of the respective mutations was examined in the mutations corresponding to McPHm2, McPHm3, and McPHm9, each of which was effective to improve the activity. A plasmid expressing a double mutant (McPHm10) with substitutions of phenylalanine to tyrosine at position 5 and cysteine to alanine at position 23, and a plasmid expressing a triple mutant, which is derived from the double mutant and further has a substitution of aspartic acid to glutamic acid at position 282, were constructed. Then, recombinant E. coli strains were produced according to the method described above, and the resulting enzyme solutions were used to evaluate the 5-hydroxy-L-pipecolic acid-producing activity.

Data set [7] can be described thus: Hydroxylation activity of McPH mutants with L-proline as substrate (Example 6). The class given is biochemical. The conditions noted are these: method of Example 4, in words.

Numbering of substitutions follows the chain as printed. Names and notes keep the numbering of the source.

B1: CaPH: L-proline cis-4-hydroxylase from Catenulispora acidiphila NBRC102108, GenBank WP_012787640, SEQ ID NO: 6 (protein, listed as Catenulispora acidiphila)
chain: MRTQYVAALELDEGRLAKDLETSASFNYSEAYSNYLIGGPWKSAMLYSAGGDAGDGLLTDYDYRQSSDFTDYGRQMPYLQELISTSVDLSRLTFVRLARFAKSVIVPHRDFLELEEIPEDKRSAHRLHIPLATHEECFFSEDNVVYRMRAGELWYFDASRIHSVVSFAEEPRIHLIFDFADRPGAGSLVTVPGEPEGAGVPAASAVDRPQLSDAERAALARLADVLTMDTFSEIFSVLVKKHFRRDGGEHFVWDTLTALARACPDPAVLPHTQELRRYFTLERPSGSGQA
As to B1, in data set [1], the “Activity, Substrate: L-pipecolic acid (cell spanning Km to kcat/Km)” value is “(No activity )”. Further, the “hydroxy-L-proline detected from the reaction solution” value (“hydroxy-L-proline detected” below) in data set [2] is “much amount of hydroxy-L-proline was detected”. The “Accumulation of (4S)-hydroxy-L-proline” value in data set [3] (in words) was “no accumulation of (4S)-hydroxy-L-proline is confirmed”. Besides, in data set [3], the “Accumulation amount of (4S)-hydroxy-L-proline” value is 0 mmol/L, the “Accumulation amount of (5S)-Hydroxy-L-pipecolic acid” value was 0.8 mmol/L and the “Accumulation amount of L-pipecolic acid” value stood at 18.8 mmol/L. Besides, in data set [4], the “Relative activity, Substrate: L-proline (hydroxy-L-proline-producing activity, 100 = hydroxy-L-pipecolic acid-producing activity)” value is reported as 583% and the “hydroxy-L-proline detected” value is “much amount of hydroxy-L-proline was detected”. In addition, in data set [5], the “Relative activity, Substrate: L-pipecolic acid” value stood at 100%.

B2: McPH: amino acid hydroxylase from Micromonospora chokoriensis, GenBank WP_030487089, SEQ ID NO: 2 (protein, listed as Micromonospora chokoriensis)
chain: MRTHFVGEVALDLARLEADLATCRSLEWSEAYSDYVFGGSWKSCMLWAPGGDAGDGVVTDYAYDRSAGFTPHAERLPYLAELIRETADLDRLNFARLALVTNSVIIPHRDLLELSDLPDEARNEHRMHIPLATNDNCFFNEDNVVYRMRRGEVWFLDASRIHSVAVLTAQPRIHLMLDFVDTPGAGSFTRVAGGGVEAGIPVDRIVTRPPLGDDERADLFGVAPLLSMDTFDEVFSIVIKKHFRRDGGSDFVWDTMLELAAKSPDPAVLPHTEELRKHYTLDRSA
On to B2, for which the “hydroxy-L-proline detected” value in data set [2] was “no hydroxy-L-proline was detected”. The “Activity, Substrate: L-proline (cell spanning Km to kcat/Km)” value in data set [2] (in words) was “(No activity )”. Moreover, the “Accumulation of (4S)-hydroxy-L-proline” value in data set [3] (in words) is listed as “No accumulation of (4S)-hydroxy-L-proline was confirmed”. In data set [3], the “Accumulation amount of (4S)-hydroxy-L-proline” value came to 0 mmol/L, the “Accumulation amount of (5S)-Hydroxy-L-pipecolic acid” value amounted to 23.5 mmol/L and the “Accumulation amount of L-pipecolic acid” value came out at 1.8 mmol/L. Further, the “Conversion of the substrate to (5S)-hydroxy-L-pipecolic acid” value in data set [3] (incubation for 120 hours, in words) is “almost the entire amount of the substrate was allowed to convert to (5S)-hydroxy-L-pipecolic acid”. Besides, the “Relative activity (5-hydroxy-L-pipecolic acid-producing activity, wild-type McPH = 100%)” value in data set [6] (Table 9, single mutants, U/g-protein basis, method of Example 4) came to 100%. The “Relative activity (5-hydroxy-L-pipecolic acid-producing activity, wild type = 100)” value in data set [6] is on record as 100. For the same molecule, in data set [4], the “Relative activity, Substrate: L-proline (hydroxy-L-proline-producing activity, 100 = hydroxy-L-pipecolic acid-producing activity)” value is listed as 0% and the “hydroxy-L-proline detected” value is on record as “No hydroxy-L-proline was detected”. Moreover, in data set [5], the “Relative activity, Substrate: L-pipecolic acid” value is 100%.

B3: McPHm11: McPH triple mutant F5Y, C23A, D282E; SEQ ID NO: 20 (protein, listed as Micromonospora chokoriensis)
chain: B2 chain with F5Y, C23A, D282E
B3: the “Relative activity (5-hydroxy-L-pipecolic acid-producing activity, wild type = 100)” value in data set [6] is given as 314. For the same molecule, in data set [6] (in words), the “Activity compared with that of the wild-type enzyme” value was “three or more times higher”. In addition, the “Hydroxylation activity with L-proline as substrate” value in data set [7] was “virtually no activity against proline”.

The record behind these values is patent US12173330B2, “Method for producing hydroxy-L-pipecolic acid” (API CORPORATION, priority 2015, dated 2024).
